# Test results taken from article PMC8220720, “Universal capability of 3-ketosteroid Δ^1-dehydrogenases to catalyze Δ^1-dehydrogenation of C17-substituted steroids” (Microbial Cell Factories, 2021).
# B1: AcmB (Sterolibacterium denitrificans) (protein)
# chain: MSIETNTYDVIVVGSGAGAMLAAARAHDLGLSVLVVEKSDKYGGTSAVSGGAVWIPNNSQMQIKDSFDEALTYLKAATQGLVAEDRLLAYLESAPQMVEYINANMTLQYFPCHRYPDYYQHLPGAKPGGRTMEPMLFDAALLGDEFANLRMAYTGTLLMGKASMTATEAHVMLAKEPGWMLQVIKSLGRYYLDLPWRLKSRHDRKRGLGNAMAAGLRHALLERKVPLWLNTPFESLITEGAENKRVTGIVVKRNGQTLQLTARRGVVLGAGGFERNQQMREQYLPKPTNAAWSATPPHNTGDTIRAAMDIGARAELMDWAWWVPSIHVPGEAAQTGLFAERNLPGCIVVNGKGQRFINEASPYLEFGAAMYENHARSGSAVPAWLIFDGKFRYNYPMGPLMPGQIQPDRKAWLGKVYWRDDTLEGLAKQIGVDAAGLKQSVELNNQYAQDGKDREFDKGGNVFDRYYGDYNVKPNPCLAPIGKPPYYAMRVDAGDIGTKGGLLTDKDARVLDESDRPIEGLYCIGNNSASVMGKAYPGAGGTLGPAMTFGFRAANHIAASK
# notes: recombinant, purified; cloned, expressed and purified as in the authors' earlier work; FAD enzyme
# Assays:
# Assay in all cases: purified protein
# Format in all cases: biochemical, Sterolibacterium denitrificans
# [1] = substrate: CC(C)CCC[C@@H](C)[C@H]1CC[C@H]2[C@@H]3CCC4=CC(=O)CC[C@]4(C)[C@H]3CC[C@]12C; conditions: apparent, as total steroid concentration, DCPIP as acceptor, 2% HBC, 2% EGME, 0.1 M potassium phosphate pH 6.5, 30 °C
# [2] = substrate: O=C1C(Cl)=CC(=Nc2ccc(O)cc2)C=C1Cl; conditions: apparent, electron acceptor, co-substrate cholest-4-en-3-one, 2% HBC, 2% EGME, 0.1 M potassium phosphate pH 6.5, 30 °C
# [3] = substrate: C[C@]12CCC(=O)C=C1CC[C@@H]1[C@@H]2CC[C@]2(C)C(=O)CC[C@@H]12; conditions: pH 6.5; 30.0 °C
protein,measurement,setting,value
B1,Km,[1],23.7 ± 1.16 µM
same,kcat,[1],5.8 ± 0.2 s⁻¹
same,kcat/Km,[1],245000 ± 1000 M⁻¹ s⁻¹
same,Km,[2],37.3 ± 3.3 µM
same,kcat,[2],5.8 ± 0.2 s⁻¹
same,Km,[3],529.2 ± 32.5 µM
same,kcat/Km,[3],87000 ± 5000 M⁻¹ s⁻¹
